Among the data in PMC10861912, “Viral afterlife: SARS-CoV-2 as a reservoir of immunomimetic peptides that reassemble into proinflammatory supramolecular complexes” (Proceedings of the National Academy of Sciences of the …, 2024) are linear charge density values, retold here.

The nature of this data set: Linear charge density of the peptide. It is filed as physicochemical.

Regarding “LL-37: highly cationic human cathelicidin, host antimicrobial peptide”, the linear charge density result was “~ +1.1 e/nm”.
